# Test results taken from patent US8168188.
# What was measured:
# [1] = target: amyloid β monomers (length not stated) (UniProt P05067); experiment: assay not stated
# [2] = target: amylospheroid 40 (Homo sapiens (Human)) (UniProt P05067); experiment: SPR (BIAcore 3000), amylospheroid coupled to CM5 chip, antibody in solution
# [3] = target: amylospheroid 42 (Homo sapiens (Human)) (UniProt P05067); experiment: as above
reactivity with amyloid β monomers relative to reactivity with amylospheroid [1],Kd [2],Kd [3],Substance
2 fold,–,–,commercialized N-terminal antibodies 82E1 (IBL) (antibody)
–,2.9 nM,–,commercialized anti-amyloid β antibody 6E10
–,1.7 nM,3.2 nM,commercialized anti-amyloid β antibody 4G8
